We go through 4 molecules from publication PMC5679670, “The helicase DinG responds to stress due to DNA double strand breaks” (PLoS ONE, 2017).

Data set [1] addresses T1, DinGNm (Neisseria meningitidis, UniProt Q9K181).
T1 construct: gene dinG; full-length gene amplified from MC58 genomic DNA, C-terminal 6xHis tag (pET-28b(+), pSB13), E. coli NiCo21(DE3); Ni-NTA and Resource Q; iron-containing (4 Fe per protein)
T1 sequence (Q9K181 1-716): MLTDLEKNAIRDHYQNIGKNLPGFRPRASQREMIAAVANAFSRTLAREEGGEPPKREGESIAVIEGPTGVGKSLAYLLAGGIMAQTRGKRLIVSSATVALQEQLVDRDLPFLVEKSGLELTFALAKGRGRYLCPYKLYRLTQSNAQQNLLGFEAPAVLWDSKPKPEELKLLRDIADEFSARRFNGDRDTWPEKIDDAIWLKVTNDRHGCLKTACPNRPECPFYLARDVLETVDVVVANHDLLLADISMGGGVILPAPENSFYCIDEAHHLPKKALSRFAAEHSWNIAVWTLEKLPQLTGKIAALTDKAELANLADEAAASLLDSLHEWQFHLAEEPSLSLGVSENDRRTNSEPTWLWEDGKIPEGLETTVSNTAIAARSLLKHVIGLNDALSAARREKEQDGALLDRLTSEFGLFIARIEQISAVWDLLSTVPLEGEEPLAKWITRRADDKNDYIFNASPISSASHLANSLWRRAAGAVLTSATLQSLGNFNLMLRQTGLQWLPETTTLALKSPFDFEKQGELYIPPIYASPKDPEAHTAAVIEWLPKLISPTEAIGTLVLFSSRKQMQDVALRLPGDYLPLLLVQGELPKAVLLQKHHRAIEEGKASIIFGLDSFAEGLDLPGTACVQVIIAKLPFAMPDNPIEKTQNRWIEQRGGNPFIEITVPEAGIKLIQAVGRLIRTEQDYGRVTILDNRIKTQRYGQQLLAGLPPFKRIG
In words: forked DNA (T1+B1) unwinding, native PAGE. In kind it is biochemical. The following applies: 2 mM nucleotide, 2 mM Mg2+, 400 nM DinG, pH 7.5, 37 °C; read-out is nucleotide-dependent unwinding.

For data set [2], the target named is T2, Neisseria meningitidis helicase DinG (DinGNm) (N. meningitidis MC58, UniProt Q9K181 1-716).
T2 construct: DinG helicase of Neisseria meningitidis strain MC58, gene amplified from genomic DNA and cloned into pET-28b(+) (plasmid pSB13); also called Nm DinG; DNA damage-inducible protein DinG; source: E. coli NiCo21 (DE3) with pLysS, purified (Ni-NTA, Resource Q ion exchange)
T2 sequence (looked up): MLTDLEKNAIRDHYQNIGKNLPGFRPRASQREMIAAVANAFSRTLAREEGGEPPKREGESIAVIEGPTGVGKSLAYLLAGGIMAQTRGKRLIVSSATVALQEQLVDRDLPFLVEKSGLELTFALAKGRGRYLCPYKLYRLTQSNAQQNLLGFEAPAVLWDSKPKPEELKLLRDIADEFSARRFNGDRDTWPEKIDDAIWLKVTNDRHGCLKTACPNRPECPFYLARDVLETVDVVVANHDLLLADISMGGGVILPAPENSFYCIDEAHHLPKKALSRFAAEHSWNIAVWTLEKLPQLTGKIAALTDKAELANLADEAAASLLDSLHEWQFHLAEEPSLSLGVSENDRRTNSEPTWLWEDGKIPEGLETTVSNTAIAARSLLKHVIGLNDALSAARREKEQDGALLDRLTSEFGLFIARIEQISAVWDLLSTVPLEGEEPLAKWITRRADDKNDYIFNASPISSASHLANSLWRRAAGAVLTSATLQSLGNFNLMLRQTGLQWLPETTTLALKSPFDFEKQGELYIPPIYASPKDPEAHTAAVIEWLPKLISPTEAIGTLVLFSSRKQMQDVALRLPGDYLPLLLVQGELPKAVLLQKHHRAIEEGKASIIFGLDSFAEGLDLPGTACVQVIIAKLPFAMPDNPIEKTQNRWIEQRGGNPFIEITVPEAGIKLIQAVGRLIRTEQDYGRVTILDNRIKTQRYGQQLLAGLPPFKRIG
In words: MST; SSB proteins labelled (RED-NHS, 20.7 nM), DinG proteins titrated as ligands; 20 mM HEPES pH 7.5, 300 mM NaCl, 0.05% Tween 20, 0.1% Pluronic F-127, 0.1% PEG 8000, 2 mM DTT; 22°C, 20% MST power. As to conditions: both partners purified.

In data set [3] the target is DinGNmK72A (Neisseria meningitidis MC58, UniProt Q9K181 1-716, K72A). In words: EMSA; protein titration; mutant retained DNA binding affinity; EMSA: 40 mM Tris-HCl pH 8, 2.5 mM EDTA, 2 mM MgCl2, 100 mg/ml BSA (so in the source), 6% glycerol, 2 mM DTT, 0.1 nM 32P-DNA, 15 min on ice; 5% native PAGE in ice bath. As to conditions: protein: recombinant; tags: C-terminal 6xHis; label: 32P; single strand. A general note: A gel shift assay detects complexes by their altered migration in electrophoresis.

In data set [4] the target is SSBNmΔ8C (N. meningitidis MC58). Kind of data set: MST; SSB proteins labelled (RED-NHS, 20.7 nM), DinG proteins titrated as ligands; 20 mM HEPES pH 7.5, 300 mM NaCl, 0.05% Tween 20, 0.1% Pluronic F-127, 0.1% PEG 8000, 2 mM DTT; 22°C, 20% MST power.

With `Nc1ncnc2c1ncn2[C@H]1C[C@H](O)[C@@H](COP(=O)(O)OP(=O)(O)OP(=O)(O)O)O1` [dATP], the “forked DNA (T1+B1) unwinding, native PAGE” value in data set [1] is on record as “unwinding activity of DinGNm was observed only in the presence of ATP or dATP”.

B1: Neisseria meningitidis single-stranded DNA binding protein (SSBNm) (natural protein, N. meningitidis MC58, UniProt P66848 1-174, looked up)
chain: MSLNKVILIGRLGRDPEVRYMPNGEAVCNFSVATSETWNDRNGQRVERTEWHNITMYRKLAEIAGQYLKKGGLVYLEGRIQSRKYQGKDGIERTAYDIVANEMKMLGGRNENSGGAPYEEGYGQSQEAYQRPAQQSRQPASDAPSHPQEAPAAPRRQPVPAAAPVEDIDDDIPF
modifications: in the MST assay labelled with the Monolith NT Protein Labeling Kit RED-NHS, degree of labelling 0.7
notes: SSB of Neisseria meningitidis, expression vector pEH1; Unlabelled in the ammonium sulphate co-precipitation
In general, Kd refers to the concentration at which binding is half-saturated. High values mean weaker binding, low ones tighter binding. Turning to B1, binding in data set [2] was put at a Kd of 1.36 ± 0.11 µM.

B2: poly dT100 (ssDNA)
DNA: TTTTTTTTTTTTTTTTTTTTTTTTTTTTTTTTTTTTTTTTTTTTTTTTTTTTTTTTTTTTTTTTTTTTTTTTTTTTTTTTTTTTTTTTTTTTTTTTTTTT
Consider B2, for which, in data set [3], the binding result was “binds”.

B3: Neisseria meningitidis helicase DinG (DinGNm) (enzyme)
chain: MLTDLEKNAIRDHYQNIGKNLPGFRPRASQREMIAAVANAFSRTLAREEGGEPPKREGESIAVIEGPTGVGKSLAYLLAGGIMAQTRGKRLIVSSATVALQEQLVDRDLPFLVEKSGLELTFALAKGRGRYLCPYKLYRLTQSNAQQNLLGFEAPAVLWDSKPKPEELKLLRDIADEFSARRFNGDRDTWPEKIDDAIWLKVTNDRHGCLKTACPNRPECPFYLARDVLETVDVVVANHDLLLADISMGGGVILPAPENSFYCIDEAHHLPKKALSRFAAEHSWNIAVWTLEKLPQLTGKIAALTDKAELANLADEAAASLLDSLHEWQFHLAEEPSLSLGVSENDRRTNSEPTWLWEDGKIPEGLETTVSNTAIAARSLLKHVIGLNDALSAARREKEQDGALLDRLTSEFGLFIARIEQISAVWDLLSTVPLEGEEPLAKWITRRADDKNDYIFNASPISSASHLANSLWRRAAGAVLTSATLQSLGNFNLMLRQTGLQWLPETTTLALKSPFDFEKQGELYIPPIYASPKDPEAHTAAVIEWLPKLISPTEAIGTLVLFSSRKQMQDVALRLPGDYLPLLLVQGELPKAVLLQKHHRAIEEGKASIIFGLDSFAEGLDLPGTACVQVIIAKLPFAMPDNPIEKTQNRWIEQRGGNPFIEITVPEAGIKLIQAVGRLIRTEQDYGRVTILDNRIKTQRYGQQLLAGLPPFKRIG
As for B3, the Kd in data set [4] is 3.71 µM.
